Six molecules from patent US20250057918A1 (YALE UNIVERSITY, published 2025) can be followed below.

Residue numbers refer to the chain shown, from its start. Read-outs that look alike come from different tables or passages of the source.

The target in assay [1] is T1, IL-18 receptor (IL-18R) on HEK-Blue IL-18 reporter cells (UniProt Q13478 19-541; O95256 20-599, limits assumed).
T1 sequence (looked up) 1: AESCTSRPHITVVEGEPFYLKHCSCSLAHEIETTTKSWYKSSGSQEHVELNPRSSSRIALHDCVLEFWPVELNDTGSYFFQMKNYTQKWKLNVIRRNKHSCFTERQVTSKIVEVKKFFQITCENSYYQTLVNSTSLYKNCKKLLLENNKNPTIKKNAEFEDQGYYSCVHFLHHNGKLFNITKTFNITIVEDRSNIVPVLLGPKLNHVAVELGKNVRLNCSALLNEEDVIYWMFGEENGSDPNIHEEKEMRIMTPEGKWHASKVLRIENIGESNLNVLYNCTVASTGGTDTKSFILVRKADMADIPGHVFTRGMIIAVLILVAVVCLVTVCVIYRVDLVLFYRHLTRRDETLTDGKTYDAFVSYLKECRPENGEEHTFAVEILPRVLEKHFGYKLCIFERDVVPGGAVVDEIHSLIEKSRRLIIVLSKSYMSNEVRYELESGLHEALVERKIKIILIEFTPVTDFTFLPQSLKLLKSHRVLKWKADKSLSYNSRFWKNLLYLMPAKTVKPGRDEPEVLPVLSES
T1 sequence (looked up) 2: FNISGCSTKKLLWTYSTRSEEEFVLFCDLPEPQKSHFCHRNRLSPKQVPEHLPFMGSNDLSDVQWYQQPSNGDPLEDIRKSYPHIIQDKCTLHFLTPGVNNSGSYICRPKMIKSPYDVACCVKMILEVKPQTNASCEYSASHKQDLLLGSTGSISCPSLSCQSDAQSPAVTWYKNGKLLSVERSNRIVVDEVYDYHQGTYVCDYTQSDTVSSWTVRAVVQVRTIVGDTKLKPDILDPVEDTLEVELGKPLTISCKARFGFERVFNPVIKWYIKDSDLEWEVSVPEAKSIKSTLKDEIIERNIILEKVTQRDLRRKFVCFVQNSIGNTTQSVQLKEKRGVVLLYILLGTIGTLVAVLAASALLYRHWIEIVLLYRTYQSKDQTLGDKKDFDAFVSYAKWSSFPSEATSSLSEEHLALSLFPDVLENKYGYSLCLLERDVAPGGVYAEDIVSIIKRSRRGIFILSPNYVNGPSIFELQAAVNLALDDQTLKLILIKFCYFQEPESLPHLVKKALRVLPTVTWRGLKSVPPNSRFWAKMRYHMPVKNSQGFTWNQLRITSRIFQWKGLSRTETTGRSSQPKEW
Nature of the assay: cell-based or functional assay.

For assay [2], the target named is T2, human IL-18BP (amino acids 31-194) (human, UniProt O95998 31-194, biotinylated on the AviTag (BirA ligase) where immobilized or used for staining).
T2 construct: Secreted decoy receptor; made in insect cells (gp67 signal peptide); also called hIL-18BP
T2 sequence: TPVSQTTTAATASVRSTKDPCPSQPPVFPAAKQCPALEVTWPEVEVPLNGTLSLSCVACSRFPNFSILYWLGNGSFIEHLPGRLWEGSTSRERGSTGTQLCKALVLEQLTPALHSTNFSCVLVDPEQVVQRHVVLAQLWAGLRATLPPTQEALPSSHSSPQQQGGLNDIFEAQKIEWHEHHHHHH
Nature of the assay: SPR; KD BP / KD Ra normalized to WT IL-18. (In general: SPR reads the build-up and loss of mass on a sensor chip optically.)

Assay [3] concerns the target T2, human IL-18BP (amino acids 31-194). Nature of the assay: on-yeast isotherms; BP/Rα KD ratio normalized to WT. The protocol:
(§1) Individual colonies of IL-18 yeast were grown overnight at 30° C. in SDCAA liquid media and induced in SGCAA liquid media for 1 day at 20° C. IL-18 display levels on yeast were verified by flow cytometry using an anti-cMyc tag antibody (anti-myc-PE; Cell Signaling Technologies). Receptor staining with biotinylated IL-18Rα (with or without IL-18Rβ) or biotinylated IL-18BP was performed in PBS supplemented with 0.5% BSA and 2 mM EDTA (PBE) on ice. All analysis was performed on a Sony SA3800 flow cytometer.
(§2) To additionally characterize the receptor binding activities of the DR-IL-18 variants, the cytokines were expressed recombinantly and surface plasmon resonance for IL-18Rα and IL-18BP was performed (see FIG. 5B for representative traces).

Assay [4] shares this target. Nature of the assay: on-yeast isotherms; KD IL-18BP / KD IL-18Rα (20 µM used for NBD).
The target of assay [5] is T3, human IL-18Rα ectodomain (amino acids 19-329) (human, UniProt Q13478 19-329, biotinylated on the AviTag (BirA ligase)).
T3 construct: range 19-329; Secreted from insect cells (gp67 signal peptide); also called hIL-18Rα; hIL-18Ra
T3 sequence: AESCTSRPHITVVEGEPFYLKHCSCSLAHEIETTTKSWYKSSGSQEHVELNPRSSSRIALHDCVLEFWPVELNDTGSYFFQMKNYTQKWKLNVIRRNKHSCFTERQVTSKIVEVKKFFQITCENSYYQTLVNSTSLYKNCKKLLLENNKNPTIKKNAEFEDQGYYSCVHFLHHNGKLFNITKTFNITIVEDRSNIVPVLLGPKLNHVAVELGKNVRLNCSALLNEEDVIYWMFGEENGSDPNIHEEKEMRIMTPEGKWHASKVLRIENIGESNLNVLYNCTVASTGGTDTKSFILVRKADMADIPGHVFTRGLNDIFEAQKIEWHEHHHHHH
In words: on-yeast binding isotherm, flow cytometry. The protocol:
as §1, §2
(Flow cytometry measures light scatter and fluorescence of single cells or particles in a stream.)

The target of assay [6] is T1, IL-18 receptor (IL-18R) on HEK-Blue …. Nature of the assay: cell-based or functional assay. This is another data set of the same source.
Assay [7] concerns the target T2, human IL-18BP (amino acids 31-194). Nature of the assay: SPR; KD IL-18BP / KD IL-18Rα; SPR; ratio of two KDs. The protocol:
(§3) Experiments were conducted using a Biacore™ T100 (Protein analysis interaction system) and carried out at 25° C. Biotinylated IL-18Rα or TL-18BP were immobilized onto a Biacore™ biotin capture chip (Series S CAP sensor chip, GE Healthcare) to yield an Rmax of ˜50 RU (IL-18Rα) or ˜10 RU (IL-18BP). Measurements were made with serial dilutions of the IL-18 variants in HEPES buffered Saline-P+ buffer (10 mM HEPES pH 7.4, 150 mM NaCl, 0.005% surfactant P20). The surface was regenerated by three 60-see injections of regeneration buffer (3/4 (v/v) 8M guanidine hydrochloride with 1/4 (v/v) 1M sodium hydroxide). Experiments were performed in multiple channels simultaneously for increased observations. All data were analyzed with the Biacore™ T100 evaluation software version 2.0 with a 1:1 Langmuir binding model.
as §2

Assay [8] shares this target. In words: on-yeast isotherms; KD IL-18BP / KD IL-18Rα; on-yeast isotherms; ratio of two KDs.
The target is the same in assay [9]. Nature of the assay: on-yeast isotherms; KD IL-18BP / KD IL-18Rα (20 µM used for NBD); on-yeast isotherms; 20 µM put in for NBD. The protocol: as §1, §2
In assay [10] the target is T4, mouse IL-18BP (amino acids 31-194) (mouse, UniProt Q9Z0M9 29-193, biotinylated on the AviTag (BirA ligase)).
T4 construct: Secreted decoy receptor; made in Expi293 cells (H7 signal peptide); the stated range is the same as for the human protein; also called mIL-18BP
T4 sequence: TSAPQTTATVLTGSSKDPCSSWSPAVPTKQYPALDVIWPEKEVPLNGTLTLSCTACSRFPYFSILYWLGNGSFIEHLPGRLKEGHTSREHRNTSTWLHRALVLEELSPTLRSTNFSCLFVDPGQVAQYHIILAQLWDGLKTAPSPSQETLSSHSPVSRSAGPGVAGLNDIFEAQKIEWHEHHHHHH
Nature of the assay: SPR; KD IL-18BP / KD IL-18Rα; SPR; ratio of two KDs. The protocol:
By contrast, very little binding is observed with the same variants and mIL-18BP (right). (FIG. 11B) Representative surface plasmon resonance sensorgrams between immobilized biotinylated mIL-18BP and the murine DR-IL-18 variants.
as §3

Assay [11] has as its target T4, mouse IL-18BP (amino acids 31-194). In words: SPR; KD BP / KD Ra normalized to WT IL-18; upper end tied to mA7 by Table 9.
Assay [12] has the same target. Nature of the assay: on-yeast isotherms; KD IL-18BP / KD IL-18Rα (10 µM used for NBD); on-yeast isotherms; 10 µM put in for NBD.
Assay [13] has as its target T5, mouse IL-18Rα ectodomain (amino acids 19-329) (mouse, UniProt Q61098 19-329, biotinylated on the AviTag (BirA ligase)).
T5 construct: range 19-329; Secreted from Expi293 cells (H7 signal peptide); also called mIL-18Rα; Ra
T5 sequence: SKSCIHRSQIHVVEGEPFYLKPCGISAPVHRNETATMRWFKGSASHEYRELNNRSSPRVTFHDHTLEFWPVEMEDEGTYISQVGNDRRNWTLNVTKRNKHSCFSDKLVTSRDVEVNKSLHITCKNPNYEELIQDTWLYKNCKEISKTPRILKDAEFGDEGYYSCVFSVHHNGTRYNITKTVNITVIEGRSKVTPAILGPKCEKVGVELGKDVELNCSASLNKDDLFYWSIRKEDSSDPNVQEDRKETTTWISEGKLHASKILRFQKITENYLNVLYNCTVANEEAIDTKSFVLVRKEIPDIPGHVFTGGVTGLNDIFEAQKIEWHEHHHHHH
In words: flow cytometry, mIL-18Rα titrated on yeast-displayed murine IL-18 variant (binding isotherm, %Max).

For assay [14], the target named is T4, mouse IL-18BP (amino acids 31-194). Nature of the assay: SPR; KD BP / KD Ra normalized to WT IL-18.

B1: 6-29 (ligand)
chain: YFGKLESKLSVIRNLNDQVLFIDQGNRPLFEDMTDSDCRDNAPRTIFIISKYSDSRARGLAVTISVKCEKISTLSCENKIISFKEMNPPDNIKDTKSDIIFFQRNVPGHGRKMQFESSSYEGYFLACEKERDLFKLILKKEDELGDRSIMFTVQNED
notes: recombinant with C-terminal hexahistidine tag in SPR and cell assays; also called h6-29; version 2.0 human DR-IL-18 variant
Turning to B1, in [1], the “EC50 (read off the curve); HEK-Blue IL-18 SEAP reporter, OD 655 nM” value is about 900 pM. In addition, the “IL-18 BP:Ra Dissociation Constant Ratio” value in assay [2] is over 7.59e+06. Also, in [3], the “Dissociation Constant Ratio normalized to WT IL-18” value is over 8000. Also, in assay [4], the “KD ratio: IL-18BP/IL-18Rα” value was determined as 540.

B2: hCS2 (ligand)
chain: YFGKLESKLSVIRNLNDQVLFIDQGNRPLFEDMTDSDCRDNAPRTIFIISTYKDKQPRAKAVTISVKCEKISTLSCENKIISFKEMNPPDNIKDTKSDIIFFQRDVPGHKHKMQFESSSYEGYFLACEKERDLFKLILKKEDELGDRSIMFTIQNED
notes: recombinant with C-terminal hexahistidine tag in SPR
Take B2: the Kd (as a rule, the free concentration of one partner at which half of the binding sites on the other are occupied at equilibrium, for simple one-to-one binding) in [5] is 91.5 nM. Also, the “KD ratio: IL-18BP/IL-18Rα” value in assay [4] is over 219.

B3: hCS1 (ligand)
chain: B2 chain with K55S, A59G, I153V
notes: recombinant with C-terminal hexahistidine tag in SPR and cell assays
With B3, the “EC50 (read off the curve); HEK-Blue IL-18 SEAP reporter, OD 655 nM” value in assay [6] was about 4 nM. For the same molecule, the “IL-18 BP:Ra Dissociation Constant Ratio” value in assay [2] was 3020. The “KD ratio: IL-18BP/IL-18Rα” value was 2.41 in assay [7] and 300 in assay [8].

B4: hCS4 (ligand)
chain: B2 chain with Y1R, K53R, K55S, A59G, D105N, H111Y, I153V
notes: as for B3
Consider B4, for which the “IL-18 BP:Ra Dissociation Constant Ratio” value in assay [2] came out at 32200. Also, the “KD ratio: IL-18BP/IL-18Rα” value in assay [7] was 41.8; in assay [9], over 125.

B5: mA7 (ligand)
chain: YFGRLHCTTAVIRNINDQVLFVDKRQPVFEDMTDIDQSASEPQTRLIIYAYGDNRVRGKAVTLSVKDSKMSTLSCKNKIISFEEMDPPENIDDIQSDLIFFQKRVPGHNKMEFESSLYEGHFLACQKEDDAFKLILKKKDENGDKSVMFTLTNLHQS
notes: as for B2
As to B5, the entries for the “KD ratio: IL-18BP/IL-18Rα” value in [10] and in assay [12] were 63200 and over 741, respectively. Moreover, in assay [11], the “IL-18 BP:Ra Dissociation Constant Ratio” value came out at 3.5e+07. Moreover, in [13], the EC50 (read off the curve) (as a rule, the concentration needed to bring the measured effect to its halfway point) was about 10 nM.

B6: mCS2 (ligand)
chain: B5 chain with Y1H, N54S, V56A
notes: recombinant with C-terminal hexahistidine tag in SPR; also called DR-IL-18 (mCS2); DR-18 variant mCS2
Turning to B6, the “IL-18 BP:Ra Dissociation Constant Ratio” value in assay [14] is over 7.5e+07. The “KD ratio: IL-18BP/IL-18Rα” value in [10] is 133000; in assay [12], over 885. For the same molecule, in assay [13], the “EC50 (read off the curve)” value is about 10 nM.
